This passage reports abundance fitness results from the Human Domainome abundance scans (Beltran et al. 2025).

The labels stand for the following.
B1: Zinc finger homeobox protein 4, residues 2086 to 2141; numbered along this chain, Q86UP3 (parent)
chain: RPRTRITDDQLKILRAYFDINNSPSEEQIQEMAEKSGLSQKVIKHWFRNTLFKERQ

± gives the uncertainty stated by the source.

The variants in the series derive from B1. Briefly: abundance fitness (aPCA) (normalised: wild type 0, dead -1); higher = more abundant; growth selection in yeast, the domain comes from the species named. The settings on record: Homo sapiens.
For RPRTRITDDQLKILRAYEDINNSPSEEQIQEMAEKSGLSQKVIKHWFRNTLFKERQ [F18E], the abundance fitness is -0.305 ± 0.094.

Consider RPRTRITDDQLKILRAYKDINNSPSEEQIQEMAEKSGLSQKVIKHWFRNTLFKERQ [F18K], for which the abundance fitness was -0.044 ± 0.15.

Regarding RPRTRITDDQLKILRAYMDINNSPSEEQIQEMAEKSGLSQKVIKHWFRNTLFKERQ [F18M], the abundance fitness is -0.043 ± 0.1.

Regarding RPRTRITDDQLKILRAYADINNSPSEEQIQEMAEKSGLSQKVIKHWFRNTLFKERQ [F18A], the abundance fitness was -0.026 ± 0.073.

Consider RPRTRITDDQLKILRAGFDINNSPSEEQIQEMAEKSGLSQKVIKHWFRNTLFKERQ [Y17G], for which the abundance fitness was -0.075 ± 0.088.

In the case of RPRTRITDDQLKILRAIFDINNSPSEEQIQEMAEKSGLSQKVIKHWFRNTLFKERQ [Y17I], the abundance fitness is -0.155 ± 0.085.

As to RPRTRITDDQLKILRADFDINNSPSEEQIQEMAEKSGLSQKVIKHWFRNTLFKERQ [Y17D], the abundance fitness was -0.16 ± 0.11.

As to RPRTRITDDQLKILRAPFDINNSPSEEQIQEMAEKSGLSQKVIKHWFRNTLFKERQ [Y17P], the abundance fitness was -0.963 ± 0.12.

RPRTRITDDQLKILRATFDINNSPSEEQIQEMAEKSGLSQKVIKHWFRNTLFKERQ [Y17T]: the abundance fitness was -0.058 ± 0.088.

In the case of RPRTRITDDQLKILRAMFDINNSPSEEQIQEMAEKSGLSQKVIKHWFRNTLFKERQ [Y17M], the abundance fitness came to 0.076 ± 0.1.

As for RPRTRITDDQLKILRACFDINNSPSEEQIQEMAEKSGLSQKVIKHWFRNTLFKERQ [Y17C], the abundance fitness was -0.192 ± 0.08.

As to RPRTRITDDQLKILRAFFDINNSPSEEQIQEMAEKSGLSQKVIKHWFRNTLFKERQ [Y17F], the abundance fitness was 0.025 ± 0.088.

As for RPRTRITDDQLKILRAQFDINNSPSEEQIQEMAEKSGLSQKVIKHWFRNTLFKERQ [Y17Q], the abundance fitness was -0.089 ± 0.1.

With RPRTRITDDQLKILRASFDINNSPSEEQIQEMAEKSGLSQKVIKHWFRNTLFKERQ [Y17S], the abundance fitness is -0.227 ± 0.072.

For RPRTRITDDQLKILRANFDINNSPSEEQIQEMAEKSGLSQKVIKHWFRNTLFKERQ [Y17N], the abundance fitness turned out to be 0.041 ± 0.088.

With RPRTRITDDQLKILRARFDINNSPSEEQIQEMAEKSGLSQKVIKHWFRNTLFKERQ [Y17R], the abundance fitness is -0.114 ± 0.078.

Consider RPRTRITDDQLKILRAWFDINNSPSEEQIQEMAEKSGLSQKVIKHWFRNTLFKERQ [Y17W], for which the abundance fitness was -0.299 ± 0.097.

As to RPRTRITDDQLKILRAAFDINNSPSEEQIQEMAEKSGLSQKVIKHWFRNTLFKERQ [Y17A], the abundance fitness is -0.16 ± 0.091.

In the case of RPRTRITDDQLKILRALFDINNSPSEEQIQEMAEKSGLSQKVIKHWFRNTLFKERQ [Y17L], the abundance fitness is -0.159 ± 0.065.

RPRTRITDDQLKILRAVFDINNSPSEEQIQEMAEKSGLSQKVIKHWFRNTLFKERQ [Y17V]: the abundance fitness is -0.204 ± 0.079.

In the case of RPRTRITDDQLKILRAHFDINNSPSEEQIQEMAEKSGLSQKVIKHWFRNTLFKERQ [Y17H], the abundance fitness is -0.045 ± 0.08.

Consider RPRTRITDDQLKILYAYFDINNSPSEEQIQEMAEKSGLSQKVIKHWFRNTLFKERQ [R15Y], for which the abundance fitness was -0.2 ± 0.11.

With RPRTRITDDQLKILVAYFDINNSPSEEQIQEMAEKSGLSQKVIKHWFRNTLFKERQ [R15V], the abundance fitness was -0.151 ± 0.073.

For the variant RPRTRITDDQLKILSAYFDINNSPSEEQIQEMAEKSGLSQKVIKHWFRNTLFKERQ [R15S], the abundance fitness was -0.012 ± 0.082.

In the case of RPRTRITDDQLKILPAYFDINNSPSEEQIQEMAEKSGLSQKVIKHWFRNTLFKERQ [R15P], the abundance fitness is -0.939 ± 0.12.

Consider RPRTRITDDQLKILNAYFDINNSPSEEQIQEMAEKSGLSQKVIKHWFRNTLFKERQ [R15N], for which the abundance fitness is -0.07 ± 0.15.

Turning to RPRTRITDDQLKILQAYFDINNSPSEEQIQEMAEKSGLSQKVIKHWFRNTLFKERQ [R15Q], the abundance fitness is 0.022 ± 0.093.

On to RPRTRITDDQLKILWAYFDINNSPSEEQIQEMAEKSGLSQKVIKHWFRNTLFKERQ [R15W], for which the abundance fitness is -0.133 ± 0.081.

As for RPRTRITDDQLKILMAYFDINNSPSEEQIQEMAEKSGLSQKVIKHWFRNTLFKERQ [R15M], the abundance fitness is 0.138 ± 0.093.

Regarding RPRTRITDDQLKILTAYFDINNSPSEEQIQEMAEKSGLSQKVIKHWFRNTLFKERQ [R15T], the abundance fitness is -0.065 ± 0.088.

Take RPRTRITDDQLKILRDYFDINNSPSEEQIQEMAEKSGLSQKVIKHWFRNTLFKERQ [A16D]: the abundance fitness is -0.029 ± 0.11.

RPRTRITDDQLKILRTYFDINNSPSEEQIQEMAEKSGLSQKVIKHWFRNTLFKERQ [A16T]: the abundance fitness is -0.124 ± 0.083.

Turning to RPRTRITDDQLKILRIYFDINNSPSEEQIQEMAEKSGLSQKVIKHWFRNTLFKERQ [A16I], the abundance fitness is -0.071 ± 0.11.

Consider RPRTRITDDQLKILRKYFDINNSPSEEQIQEMAEKSGLSQKVIKHWFRNTLFKERQ [A16K], for which the abundance fitness was -0.129 ± 0.18.

For the variant RPRTRITDDQLKILRMYFDINNSPSEEQIQEMAEKSGLSQKVIKHWFRNTLFKERQ [A16M], the abundance fitness amounted to 0.124 ± 0.12.

Regarding RPRTRITDDQLKILRYYFDINNSPSEEQIQEMAEKSGLSQKVIKHWFRNTLFKERQ [A16Y], the abundance fitness is -0.013 ± 0.095.

As to RPRTRITDDQLKILRSYFDINNSPSEEQIQEMAEKSGLSQKVIKHWFRNTLFKERQ [A16S], the abundance fitness is 0.129 ± 0.068.

Take RPRTRITDDQLKILRGYFDINNSPSEEQIQEMAEKSGLSQKVIKHWFRNTLFKERQ [A16G]: the abundance fitness was 0.035 ± 0.13.

As for RPRTRITDDQLKILRNYFDINNSPSEEQIQEMAEKSGLSQKVIKHWFRNTLFKERQ [A16N], the abundance fitness was 0.16 ± 0.093.

Turning to RPRTRITDDQLKILREYFDINNSPSEEQIQEMAEKSGLSQKVIKHWFRNTLFKERQ [A16E], the abundance fitness is 0.178 ± 0.14.

With RPRTRITDDQLKILRVYFDINNSPSEEQIQEMAEKSGLSQKVIKHWFRNTLFKERQ [A16V], the abundance fitness is -0.211 ± 0.089.

As for RPRTRITDDQLKILRHYFDINNSPSEEQIQEMAEKSGLSQKVIKHWFRNTLFKERQ [A16H], the abundance fitness is 0.108 ± 0.083.

On to RPRTRITDDQLKILRLYFDINNSPSEEQIQEMAEKSGLSQKVIKHWFRNTLFKERQ [A16L], for which the abundance fitness was -0.051 ± 0.071.

In the case of RPRTRITDDQLKILRCYFDINNSPSEEQIQEMAEKSGLSQKVIKHWFRNTLFKERQ [A16C], the abundance fitness was -0.075 ± 0.077.

Regarding RPRTRITDDQLKILRQYFDINNSPSEEQIQEMAEKSGLSQKVIKHWFRNTLFKERQ [A16Q], the abundance fitness was determined as 0.03 ± 0.11.

Consider RPRTRITDDQLKILRRYFDINNSPSEEQIQEMAEKSGLSQKVIKHWFRNTLFKERQ [A16R], for which the abundance fitness came out at 0.096 ± 0.076.

RPRTRITDDQLKILRPYFDINNSPSEEQIQEMAEKSGLSQKVIKHWFRNTLFKERQ [A16P]: the abundance fitness is -0.028 ± 0.082.
